Laboratory results as given in patent US20260008852A1 (CRYSTAL BIOSCIENCE, published 2026).
Substitutions are numbered along the chain they refer to.

T1: His-tagged human B7-H3 (human, UniProt Q5ZPR3-2 29-245, limits assumed)
T1 construct: Bought His-tagged protein coated on the ELISA plate; also called hu B7-H3; CD276
T1 sequence (looked up): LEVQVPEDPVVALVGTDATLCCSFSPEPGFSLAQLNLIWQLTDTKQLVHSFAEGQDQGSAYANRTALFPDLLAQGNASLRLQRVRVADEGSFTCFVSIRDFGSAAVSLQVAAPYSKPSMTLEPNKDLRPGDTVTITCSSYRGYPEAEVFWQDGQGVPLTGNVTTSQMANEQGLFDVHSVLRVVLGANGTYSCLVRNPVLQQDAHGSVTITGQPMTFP

T2: His-tagged mouse B7-H3 (mouse, UniProt Q8VE98 29-244, limits assumed)
T2 construct: Bought His-tagged protein coated on the ELISA plate; also called mu B7-H3; murine B7-H3
T2 sequence (looked up): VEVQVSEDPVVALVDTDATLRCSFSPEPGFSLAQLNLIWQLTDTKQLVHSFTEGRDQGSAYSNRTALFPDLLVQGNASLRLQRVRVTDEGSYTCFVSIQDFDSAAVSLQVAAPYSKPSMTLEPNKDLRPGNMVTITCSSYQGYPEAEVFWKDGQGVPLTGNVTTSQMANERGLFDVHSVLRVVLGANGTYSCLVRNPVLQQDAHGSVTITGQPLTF

T3: His-tagged cynomolgus monkey B7-H3 (cynomolgus monkey)
T3 chain: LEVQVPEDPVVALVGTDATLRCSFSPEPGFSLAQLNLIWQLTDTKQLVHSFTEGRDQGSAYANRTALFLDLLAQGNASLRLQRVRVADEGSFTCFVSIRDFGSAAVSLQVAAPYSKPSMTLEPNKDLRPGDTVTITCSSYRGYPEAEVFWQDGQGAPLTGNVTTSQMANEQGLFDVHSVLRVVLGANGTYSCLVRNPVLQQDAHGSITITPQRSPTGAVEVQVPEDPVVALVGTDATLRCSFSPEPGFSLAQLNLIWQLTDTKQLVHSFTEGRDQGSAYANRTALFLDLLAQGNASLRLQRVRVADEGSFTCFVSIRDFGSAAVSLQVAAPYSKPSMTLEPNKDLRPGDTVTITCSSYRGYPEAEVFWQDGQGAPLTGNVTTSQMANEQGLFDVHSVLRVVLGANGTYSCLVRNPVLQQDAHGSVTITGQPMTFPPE

T4: B7-H3 on B7-H3-expressing CHO cells (Genescript) (UniProt Q5ZPR3 29-534, limits assumed)
T4 construct: whole, on cells; also called CHO-K1/B7-H3; MFI B7-H3
T4 sequence (looked up): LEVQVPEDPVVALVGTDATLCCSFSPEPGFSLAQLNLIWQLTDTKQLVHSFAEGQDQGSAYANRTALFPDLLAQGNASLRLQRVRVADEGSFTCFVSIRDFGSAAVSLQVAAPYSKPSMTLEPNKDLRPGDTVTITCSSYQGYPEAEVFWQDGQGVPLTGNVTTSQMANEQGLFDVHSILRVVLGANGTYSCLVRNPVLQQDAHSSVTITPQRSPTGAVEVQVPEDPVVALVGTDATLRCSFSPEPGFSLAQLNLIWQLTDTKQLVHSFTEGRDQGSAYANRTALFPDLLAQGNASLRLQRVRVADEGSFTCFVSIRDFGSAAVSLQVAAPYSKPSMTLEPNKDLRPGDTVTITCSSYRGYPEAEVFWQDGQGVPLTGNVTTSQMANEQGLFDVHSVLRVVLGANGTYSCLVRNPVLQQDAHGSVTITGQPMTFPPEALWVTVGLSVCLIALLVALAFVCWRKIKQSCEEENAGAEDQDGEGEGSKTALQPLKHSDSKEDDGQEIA

B1: 40633p1.1.A11 (scFv, V domains shown)
VH: EVQLLESGGDLVQPGGSLRLSCAASGFTFNTYWMNWVRQAPGKGLEWVAGINSKGGVTYYADSVKGRFTISRDNSKNTLYLQMNSLRAEDTAVYYCADWNDYDIMDVWGQGTTVTVSS
VL: QSVLTQPPSASGTPGQTITISCSGSSSNVGRRTVNWYQQLPGTAPKLLIYTNAQRPSGVPDRFSGSKSGTSASLAISGLQSEDEADYYCATWDDSLNAWVFGGGTKLTVL
notes: Tested as scFv-Fc (Expi293 supernatant)
B2: 40633p1.2.C11 (scFv, V domains shown)
VH: B1 VH with D10G, N30S, T31S, N35S, S53R, K54N, V57S, K76E, M83V, D98R
VL: QSVLTQPSSASGTPGQRVTISCSGSSSNVGRRAVNWYQQLPGTAPKLLISNSQRPSGVPDRFSGSKSGTSASLAISGLQSEDEADYYCATWDASLNSWVFGGGTKLTVL
notes: as for B1
B3: 40579p1.E5 (scFv, V domains shown)
VH: EVQLLESGGGLVQPGGSLRLSCAASGFTFSDDWMTWVRQAPGKGLEWVSAINWNGNSTHYADSVKGRFTVSRDNSKNTLYLQMNSLRAEDTAVYYCAKSRTTYYSSMDVWGQGTTVTVSS
VL: EIVLTQSPGTLSLSPGERATLSCRASQTVGSYLAWYQQKPGQAPRLLIYGASSRATGIPARFSGSGSGTDFTLTISSLQSEDFAVYYCQHYYDWPPYSFGGGTKVEIK
notes: as for B1
B4: 40579p1.G1 (scFv, V domains shown)
VH: EVQLLESGGGLVQPGGSLRLSCAASGFNFSSYWMSWVRQAPGKGLEWVSGISISYGGNAYYADSVKGRFTVSRDNSKNTLYLQMNSLRAEDTAVYYCGRDRSPYQYRSMDVWGQGTTVTVSS
VL: B3 VL with T28S, V29I, G30R, Y32D, D70E, H90Q, Y92N, D93N, Y97L, S98T
notes: as for B1
B5: 40579p1.H7 (scFv, V domains shown)
VH: B4 VH with G10D
VL: B3 VL with T28S, V29I, G30R, Y32D, D70E, H90Q, Y92N, D93N, Y97L, S98T
notes: as for B1
B6: 40511p1.1.A1 (scFv, V domains shown)
VH: DVQLVESGGGVVRPGESLRLSCAASGFTFSNYAMNWVRQAPGEGLEWVSRINYKGYNITYYADSVKGRFTISRDNSKNTLYLQMNSLRAEDTAVYYCAKSGSNSNNFFDYWGLGTLVTVSS
VL: EIVLTQSPGTLSVSPGERATLSCRASQSVNSKLAWYQQRPGQAPRLLIYDASSRATGIPDRFSGSGSGTDFTLTISRLEPEDFAVYYCQQYKNWPPLTFGGGTKVEIK
notes: as for B1
B7: 40579p1.F7 (scFv, V domains shown)
VH: B4 VH with N28T, S31D, W33Y
VL: EIVLTQSPGTLSLSPGERATLTCRASQSVGDFLAWYQQKPGQAPRLLIYGASTRAAGIPARFRGSGSGTDFTLTISSLQSEDFAVYYCQQYKNWPPLTFGGGTKVEIK
notes: as for B1
B8: 40579p1.H6 (scFv, V domains shown)
VH: EVQLLESGGGLVQPGGSLRLSCAASGFTVNNAWMSWVRQAPGKGLEWVSAISYGGSIYYADSVKGRFTISRDNSKNTLYLQMNSLRAEDTAVYYCAKHRSTTYNGMDVWGQGTTVTVSS
VL: B7 VL with T22S, D31S, S52N, A60D, S67N, K92Y, N93D
notes: as for B1
B9: 40633p1.2.A10 (scFv, V domains shown)
VH: EVQLLESGGGLVQPGGSLRLSCAASGFTVSYYGMSWVRQAPGKGLEWVSVIKQDGSEEYYADSVKGRFTISRDNSKNTLYLQMNSLRAEDTAVYYCARHWNDYSNGMNVWGQGTTVTVSS
VL: QSVLTQPPSASGTPGQRVTISCSGSTSNVGDRYVYWYQQLPGTAPKLLIYLDDQRPSGVPDRFSGSKSGTSASLAISGLQSEDEADYYCASWDASLNGWVFGGGTKLTVL
notes: as for B1
B10: 40633p1.1.A7 (scFv, V domains shown)
VH: B9 VH with V50A, E58K, G106A
VL: B9 VL with V29I, D31R, R32E, Y33S, L51T, D52I, D86V
notes: as for B1
B11: 40633p1.1.A6 (scFv, V domains shown)
VH: EVQLLESGGGLVQPGGSLRLSCAASGFSFSNYDMSWVRQAPGKGLEWVAGIRSGSRTYYADSVKGRFTISRDNSKNTLYLQMNSLRAEDTATYYCGRYFNMDVWGQGTTVTVSS
VL: QSVLTQPPSASGTPGQRVTISCSGSTFNIGTNLVHWYQQLPGTAPKLLIYLTDRRPSGVPDRFSGSKSGTSASLAISGLQSEDEANYYCATWDDSLNSFLFGGGTKLTVL
notes: as for B1
B12: 40633p1.2.E11 (scFv, V domains shown)
VH: B11 VH
VL: B11 VL with S57P
notes: as for B1

What was measured:
His-tagged human B7-H3 [1] = target: T1, His-tagged human B7-H3; test: ELISA OD450 on hu B7-H3 over OD450 on mu B7-H3
Method: (§1) The variable regions of heavy and light chains were cloned and assembled into a single chain Fv-Fc (ScFv-Fc) mammalian expression vector. Sanger sequencing was performed by GeneWiz and sequences were evaluated using DNASTAR Lasergene 15. Unique scFv-Fes were transiently expressed in Expi293 cells (Life Technologies, #A14527) grown in Expi293 Expression Medium (Life Technologies, #A1435101) after transfection using the ExpiFectamine transfection reagent and supplements (Life Technologies, #A14524). Cells were incubated for 3-5 days with shaking at 37° C. in a 5% CO2 humidified incubator.

His-tagged human B7-H3 [2] = target: T1, His-tagged human B7-H3; test: ELISA, coated His-tagged antigen, scFv-Fc 1 ug/ml
Method: as §1

His-tagged mouse B7-H3 = target: T2, His-tagged mouse B7-H3; test: ELISA, coated His-tagged antigen, scFv-Fc 1 ug/ml
Method: as §1

[3] = target: T3, His-tagged cynomolgus monkey B7-H3; test: ELISA, coated His-tagged antigen, scFv-Fc 1 ug/ml
Method: as §1

[4] = target: T4, B7-H3 on B7-H3-expressing CHO cells …; test: flow cytometry, B7-H3-expressing CHO cells, 10 ug/ml
Method: Binding of anti-B7-H3 antibodies to cell lines was assessed by flow cytometry. Briefly, approximately 1.5 e5 B7-H3-expressing CHO cells (Genescript) or parent CHO cells (ATCC) were resuspended in FACS buffer (PBS/1% BSA/0.01% NaN3) containing 10 μg/ml of anti-B7-H3 antibodies and incubated for 60 min on ice. […] Cells were then washed twice, resuspended in FACS buffer, and read on an Attune Flow Cytometer (Life Technologies). Data are expressed as Mean Fluorescent Intensities (MFI).

Binder | hu:mu ratio (His-tagged human B7-H3 [1]) | ELISA OD450 @ 1 ug/ml (His-tagged human B7-H3 [2]) | ELISA OD450 @ 1 ug/ml (His-tagged mouse B7-H3) | ELISA OD450 @ 1 ug/ml [3] | MFI @ 10 ug/ml [4]
B1 | 1.63 | 2.08 OD450 | 1.27 OD450 | 1.77 OD450 | 64800 MFI
B2 |  |  |  | 0.045 OD450 | 18300 MFI
B3 | 1.36 | 1.95 OD450 | 1.44 OD450 | 2.17 OD450 | 89200 MFI
B4 | 0.966 | 1.73 OD450 | 1.79 OD450 | 1.73 OD450 | 87100 MFI
B5 | 0.971 | 1.86 OD450 | 1.92 OD450 | 1.73 OD450 | 74600 MFI
B6 | 1.87 | 1.9 OD450 | 1.02 OD450 | 2.27 OD450 | 34100 MFI
B7 | 1.32 | 2.02 OD450 | 1.53 OD450 | 2.28 OD450 | 64500 MFI
B8 | 1.28 | 1.49 OD450 | 1.17 OD450 | 1.7 OD450 | 67600 MFI
B9 | 1.06 | 2.14 OD450 | 2.02 OD450 | 2.14 OD450 | 63500 MFI
B10 | 0.991 | 1.95 OD450 | 1.97 OD450 | 1.7 OD450 | 76400 MFI
B11 | 1.49 | 1.88 OD450 | 1.26 OD450 | 1.62 OD450 | 67800 MFI
B12 | 1.5 | 2.09 OD450 | 1.4 OD450 | 2.14 OD450 | 81300 MFI
